No end group written: not given here. FAM = fluorescein
Target: Nb6E (alpaca)
Experiment: in-gel fluorescence of the crosslinked product

Kd: 206 nM
Binder: {FAM}-QADQCAAELARQIS (not fully specified (residue 5)) [FAM-1(NO2)]

— PMC10200341 (Bioconjugate chemistry, 2022)
